This is an account of results in patent US20110256153A1 (IMMUNOGEN, published 2011).

One test deals with T1, macaque CD37 (macaque, UniProt P11049 1-277 (human entry)).
T1 construct: Expressed on 300-19 cells transfected with pSRa-CD37mac (300-19/CD37mac cells); also called macaca CD37; macaque derived CD37 antigen
T1 chain: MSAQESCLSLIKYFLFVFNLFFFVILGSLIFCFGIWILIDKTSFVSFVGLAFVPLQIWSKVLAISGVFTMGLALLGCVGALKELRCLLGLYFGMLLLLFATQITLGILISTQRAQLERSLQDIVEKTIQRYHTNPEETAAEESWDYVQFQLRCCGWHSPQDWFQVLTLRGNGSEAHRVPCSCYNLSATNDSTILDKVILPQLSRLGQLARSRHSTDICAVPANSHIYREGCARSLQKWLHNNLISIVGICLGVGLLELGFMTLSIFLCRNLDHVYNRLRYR
Description: flow cytometry, 300-19/CD37mac cells. On the procedure: (§1) Binding specificity was tested by flow cytometry using purified antibodies. […] All murine antibodies were incubated for 3 h with either CD37-expressing 300-19 cells or the non-transfected 300-19 cells (1×10⁵ cells per sample) in 100 μL FACS buffer (RPMI-1640 medium supplemented with 2% normal goat serum). Then, the cells were pelleted, washed, and incubated for 1 h with 100 μL of FITC-conjugated goat anti-mouse IgG-antibody (Jackson Laboratory, 6 μg/mL in FACS buffer). The cells were pelleted again, washed with FACS buffer and resuspended in 200 μL of PBS containing 1% formaldehyde. Samples were acquired using a FACSCalibur flow cytometer with the HTS multiwell sampler or a FACS array flow cytometer and analyzed using CellQuest Pro (all from BD Biosciences, San Diego, US).
The murine antibodies muCD37-3, muCD37-12, muCD37-38, […], muCD37-51, muCD37-56 and muCD37-57 were assayed for their ability to bind to 300-19/CD37mac cells expressing macaque CD37. Flow cytometry binding assays were carried out using secondary FITC-conjugated goat-anti-murine or goat-anti-human antibodies, analyzed as described in Example 2. Binding was compared to the previously described anti-CD37 antibody WR17 and the anti-CD37 SMIP TRU-016. […] In contrast, muCD37-3, muCD37-12, the previously described anti-CD37 antibody WR17 and the anti-CD37 SMIP TRU-016 are unable to bind the macaque derived CD37 antigen.
In general terms: Flow cytometry measures light scatter and fluorescence of single cells or particles in a stream.

The target of the next test is T2, hCD37-M3 (human/murine chimera, UniProt P11049 1-281).
T2 construct: stably expressed on 300-19 cells; also called hCD37-M3 variant
T2 chain: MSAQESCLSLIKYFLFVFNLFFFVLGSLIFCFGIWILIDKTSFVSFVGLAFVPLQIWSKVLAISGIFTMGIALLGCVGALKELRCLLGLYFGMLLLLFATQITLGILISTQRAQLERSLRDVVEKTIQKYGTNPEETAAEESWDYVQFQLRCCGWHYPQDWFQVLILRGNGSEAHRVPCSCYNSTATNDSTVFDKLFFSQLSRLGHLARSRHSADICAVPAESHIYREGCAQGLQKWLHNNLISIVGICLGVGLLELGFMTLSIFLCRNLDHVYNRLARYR
In words: flow cytometry, 300-19 cells expressing hCD37-M3, 1.5 µg/mL antibody. On the procedure:
as §1
Binding of various CD37 antibodies to cells expressing human CD37 wildtype and variants was analyzed by flow cytometry using 1.5 μg/mL of each antibody. The isolated antibodies of this invention were compared to commercially available CD37 antibody WR17, as well as the TRU-016 SMIP. […] Likewise, all antibodies tested bound the hCD37-M3 variant (FIG. 18B). In contrast, the isolated antibodies of this invention bound the hCD37-M1 variant, while TRU-016 and WR17 were unable to bind hCD37-M1 variant (FIG. 19A). The CD37-50 and CD37-51 antibodies and TRU-016 were also able to bind the hCD37-M45 variant. […] In contrast, the CD37-3, CD37-12, CD37-38, CD37-56 and CD37-57 antibodies require at least one of the AA residues in the hCD37-M45 variant that were changed to the corresponding murine AA residues for binding to the CD37 antigen.

Test [1] addresses T3, human CD37 (human, UniProt P11049 1-278).
T3 construct: Tetraspanin antigen; Expressed on 300-19 cells transfected with pSRa-CD37 (entire CDS) or endogenous on WSU-DLCL-2, BJAB and Ramos lymphoma cells; also called CD37 antigen; human CD37 wildtype
T3 sequence: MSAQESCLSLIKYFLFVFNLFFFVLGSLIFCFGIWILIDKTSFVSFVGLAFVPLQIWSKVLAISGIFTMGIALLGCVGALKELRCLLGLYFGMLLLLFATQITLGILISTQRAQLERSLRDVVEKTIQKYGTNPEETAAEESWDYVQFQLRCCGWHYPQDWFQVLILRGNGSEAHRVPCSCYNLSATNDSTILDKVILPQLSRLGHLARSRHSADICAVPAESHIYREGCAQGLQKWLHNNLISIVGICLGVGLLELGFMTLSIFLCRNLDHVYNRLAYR
In words: flow cytometry titration on WSU-DLCL-2 cells; EC50 taken as apparent Kd. Here is the method: as §1
To verify that the antibodies can also bind to endogenously expressed CD37, binding experiments were performed with CD37-positive WSU-DLCL-2 lymphoma cells and the muCD37-3, muCD37-12, muCD37-8, muCD37-10 or muCD37-14 antibodies. WSU-DLCL-2 cells were incubated with varying concentrations of murine antibodies and processed as described above for flow cytometry analysis. Data analysis was performed using CellQuest Pro (BD Biosciences, San Diego, US) and for each sample the mean fluorescence intensity for FL1 (MFI) was exported and plotted against the antibody concentration in a semi-log plot (FIG. 3). […]

In test [2] the target is T3, human CD37. In words: competition flow cytometry on BJAB cells; competitor PE-labeled muCD37-3 (1 nM). Here is the method: Flow cytometry binding assays using BJAB cells and a competitive binding format were used to evaluate binding affinity of chimeric and humanized versions of CD37-3. BJAB cells were incubated with a 1 nM concentration of PE-labeled muCD37-3 antibody and competition was measured by adding varying amounts of muCD37-3, chCD37-3, huCD37-3v1.0 or huCD37-3v1.01. The samples were incubated for 3 hrs at 4° C. Then, the cells were pelleted, washed with FACS buffer and resuspended in 200 μL of PBS containing 1% formaldehyde. Samples were acquired using a FACSCalibur flow cytometer with the HTS multiwell sampler and analyzed using CellQuest Pro (all from BD Biosciences, San Diego, US). The resulting mean PE fluorescence was plotted against the amount of competing antibody used in a semi-log plot. FIG. 9B depicts the dose-response curves generated by non-linear regression for each antibody. The value for the apparent dissociation constant (Kd) of each antibody was calculated using GraphPad Prism v4 (GraphPad software, San Diego, Calif.).

B1: muCD37-3 (antibody, mouse IgG2a, kappa)
heavy: QVQVKESGPGLVAPSQSLSITCTVSGFSLTTSGVSWVRQPPGKGLEWLGVIWGDGSTNYHSALKSRLSIKKDHSKSQVFLKLNSLQTDDTATYYCAKGGYSLAHWGQGTLVTVSAAKTTAPSVYPLAPVCGDTTGSSVTLGCLVKGYFPEPVTLTWNSGSLSSGVHTFPAVLQSDLYTLSSSVTVTSSTWPSQSITCNVAHPASSTKVDKKIEPRGPTIKPCPPCKCPAPNLLGGPSVFIFPPKIKDVLMISLSPIVTCVVVDVSEDDPDVQISWFVNNVEVHTAQTQTHREDYNSTLRVVSALPIQHQDWMSGKEFKCKVNNKDLPAPIERTISKPKGSVRAPQVYVLPPPEEEMTKKQVTLTCMVTDFMPEDIYVEWTNNGKTELNYKNTEPVLDSDGSYFMYSKLRVEKKNWVERNSYSCSVVHEGLHNHHTTKSFSRTPGK
light: DIQMTQSPASLSVSVGETVTITCRASENIRSNLAWYQQKQGKSPQLLVNVATNLADGVPSRFSGSGSGTQYSLKINSLQSEDFGTYYCQHYWGTTWTFGGGTKLEIKRADAAPTVSIFPPSSEQLTSGGASVVCFLNNFYPKDINVKWKIDGSERQNGVLNSWTDQDSKDSTYSMSSTLTLTKDEYERHNSYTCEATHKTSTSPIVKSFNRNEC
notes: Murine hybridoma antibody; also called murine CD37-3 antibody; muCD37-3-PE
For orientation: EC50 means the midpoint of the concentration-response curve. Low values mean an effect from little substance, high ones a need for much substance. Consider B1, for which the binding result with macaque CD37 is on record as “no binding”; in the test with hCD37-M3, “binds”. For the same molecule, in the test with human CD37 [1], the Kd was 0.52 nM. In the test with human CD37 [2], this molecule had an EC50 of 0.8 nM.
